Earlier results as cited in publication PMC4067134.

Tests used:
[1] = target: integrin αIIbβ3 (Homo sapiens) (UniProt P08514)
[2] = target: integrin β3 (Homo sapiens) (UniProt P05106)
UniProt P05106, sequence (P05106 27-718): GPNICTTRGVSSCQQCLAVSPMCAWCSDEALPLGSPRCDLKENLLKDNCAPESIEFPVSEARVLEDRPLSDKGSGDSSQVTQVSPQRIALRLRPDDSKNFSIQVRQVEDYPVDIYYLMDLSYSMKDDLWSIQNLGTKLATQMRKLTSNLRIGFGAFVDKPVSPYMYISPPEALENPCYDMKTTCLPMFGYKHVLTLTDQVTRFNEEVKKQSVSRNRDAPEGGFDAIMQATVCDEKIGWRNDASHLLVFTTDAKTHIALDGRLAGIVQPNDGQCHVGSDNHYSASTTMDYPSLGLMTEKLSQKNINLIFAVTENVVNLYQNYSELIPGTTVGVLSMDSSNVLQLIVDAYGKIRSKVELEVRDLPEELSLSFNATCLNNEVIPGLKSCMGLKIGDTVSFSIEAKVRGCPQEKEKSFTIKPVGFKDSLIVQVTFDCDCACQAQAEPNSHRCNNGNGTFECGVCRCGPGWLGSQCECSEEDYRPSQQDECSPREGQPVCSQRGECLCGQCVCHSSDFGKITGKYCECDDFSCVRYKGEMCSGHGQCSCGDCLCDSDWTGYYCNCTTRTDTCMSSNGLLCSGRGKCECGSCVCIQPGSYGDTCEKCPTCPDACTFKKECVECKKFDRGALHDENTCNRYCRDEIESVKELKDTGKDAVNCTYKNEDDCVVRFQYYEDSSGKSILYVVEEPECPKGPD

Substance: ERp5 (from UniProt Q15084)
- Kd [1]: 7 µM
- Kd [2]: 6.9 µM
